Tested on: Escherichia coli TOP10
Assay: shrunken log2 fold change of peptide-encoding DNA abundance (4.5 h post-induction vs induction); higher = less antimicrobial activity (less host growth inhibition)
Conditions: time post-induction: 4.5 h; library: site-saturation at positions 5, 18, 19, 20
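Also: peptides expressed intracellularly from a pBAD plasmid library in pooled LB shake-flask culture, induced with 0.3% L-arabinose, DNA abundance read by NGS, three biological replicates, DESeq2 with apeglm shrinkage.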

Q: RRIRVRPPRLPRPRPRPFCPPRP was tested. Which “shrunken log2 fold change” value did it give?
A: -0.0571

Q: With RRIRQRPPRLPRPRPRPRFQPRP as the sequence, how does the “shrunken log2 fold change” value read?
A: 0.202

Q: How did the “shrunken log2 fold change” value turn out when RRIRDRPPRLPRPRPRPQRSPRP was run?
A: 0.0502

Q: With RRIRERPPRLPRPRPRPHHLPRP as the sequence, how does the “shrunken log2 fold change” value read?
A: -0.143

Q: RRIRSRPPRLPRPRPRPHFCPRP was tested. Which “shrunken log2 fold change” value did it give?
A: -0.29

Q: How did the “shrunken log2 fold change” value turn out when RRIRGRPPRLPRPRPRPGVNPRP was run?
A: 0.075

Q: With RRIRMRPPRLPRPRPRPVTPPRP as the sequence, how does the “shrunken log2 fold change” value read?
A: 0.614

Q: For RRIRSRPPRLPRPRPRPFWIPRP, which “shrunken log2 fold change” value is on record?
A: -0.299

Q: With RRIRDRPPRLPRPRPRPWIDPRP as the sequence, how does the “shrunken log2 fold change” value read?
A: 0.151

Q: Which “shrunken log2 fold change” value does the source give for RRIRDRPPRLPRPRPRPLQGPRP here?
A: 0.287

Q: RRIRARPPRLPRPRPRPCDFPRP was tested. Which “shrunken log2 fold change” value did it give?
A: -0.128

Q: With RRIRVRPPRLPRPRPRPPCRPRP as the sequence, how does the “shrunken log2 fold change” value read?
A: 2.01

Q: For RRIRPRPPRLPRPRPRPFQWPRP, which “shrunken log2 fold change” value is on record?
A: -0.0697

Q: With RRIRERPPRLPRPRPRPTFCPRP as the sequence, how does the “shrunken log2 fold change” value read?
A: -0.0701

Q: Which “shrunken log2 fold change” value does the source give for RRIRNRPPRLPRPRPRPMSTPRP here?
A: -0.0292

Q: For RRIRQRPPRLPRPRPRPGWQPRP, which “shrunken log2 fold change” value is on record?
A: -0.00211

Q: For RRIRQRPPRLPRPRPRPFFHPRP, which “shrunken log2 fold change” value is on record?
A: -0.532

Q: With RRIRERPPRLPRPRPRPADYPRP as the sequence, how does the “shrunken log2 fold change” value read?
A: -0.379

Q: For RRIRPRPPRLPRPRPRPKWWPRP, which “shrunken log2 fold change” value is on record?
A: 0.235

Q: How did the “shrunken log2 fold change” value turn out when RRIRPRPPRLPRPRPRPWKWPRP was run?
A: 0.423

Q: RRIRWRPPRLPRPRPRPTAMPRP was tested. Which “shrunken log2 fold change” value did it give?
A: 0.814

Q: How did the “shrunken log2 fold change” value turn out when RRIRARPPRLPRPRPRPFHDPRP was run?
A: -0.356

Q: How did the “shrunken log2 fold change” value turn out when RRIRQRPPRLPRPRPRPTMFPRP was run?
A: -0.208

Q: How did the “shrunken log2 fold change” value turn out when RRIRMRPPRLPRPRPRPWSHPRP was run?
A: -0.0815

Q: With RRIRIRPPRLPRPRPRPINIPRP as the sequence, how does the “shrunken log2 fold change” value read?
A: -1.41

Q: RRIRTRPPRLPRPRPRPEYPPRP was tested. Which “shrunken log2 fold change” value did it give?
A: -0.449

Q: For RRIRVRPPRLPRPRPRPRRTPRP, which “shrunken log2 fold change” value is on record?
A: 0.115

Q: RRIRARPPRLPRPRPRPIWLPRP was tested. Which “shrunken log2 fold change” value did it give?
A: 0.221

Q: How did the “shrunken log2 fold change” value turn out when RRIRCRPPRLPRPRPRPREMPRP was run?
A: 0.245

Q: With RRIRGRPPRLPRPRPRPKVCPRP as the sequence, how does the “shrunken log2 fold change” value read?
A: 0.232

Q: With RRIRFRPPRLPRPRPRPAPAPRP as the sequence, how does the “shrunken log2 fold change” value read?
A: 0.674

Q: RRIRYRPPRLPRPRPRPYIPPRP was tested. Which “shrunken log2 fold change” value did it give?
A: -0.457

Q: Which “shrunken log2 fold change” value does the source give for RRIRSRPPRLPRPRPRPVAWPRP here?
A: 0.0469

Q: RRIRPRPPRLPRPRPRPYCGPRP was tested. Which “shrunken log2 fold change” value did it give?
A: -0.148

Q: For RRIRNRPPRLPRPRPRPWFKPRP, which “shrunken log2 fold change” value is on record?
A: -0.191

Q: With RRIRFRPPRLPRPRPRPHCMPRP as the sequence, how does the “shrunken log2 fold change” value read?
A: -0.371

Q: How did the “shrunken log2 fold change” value turn out when RRIRLRPPRLPRPRPRPCWHPRP was run?
A: -0.0884

Q: How did the “shrunken log2 fold change” value turn out when RRIRKRPPRLPRPRPRPNGAPRP was run?
A: 0.168

Q: How did the “shrunken log2 fold change” value turn out when RRIRGRPPRLPRPRPRPALGPRP was run?
A: 1.11

Q: With RRIRIRPPRLPRPRPRPTNHPRP as the sequence, how does the “shrunken log2 fold change” value read?
A: -0.587

Q: Which “shrunken log2 fold change” value does the source give for RRIRTRPPRLPRPRPRPRIWPRP here?
A: 0.104

Q: Which “shrunken log2 fold change” value does the source give for RRIRPRPPRLPRPRPRPLDEPRP here?
A: 0.102

Q: RRIRVRPPRLPRPRPRPGAPPRP was tested. Which “shrunken log2 fold change” value did it give?
A: 0.603

Q: With RRIRARPPRLPRPRPRPQAPPRP as the sequence, how does the “shrunken log2 fold change” value read?
A: 0.238

Q: How did the “shrunken log2 fold change” value turn out when RRIRFRPPRLPRPRPRPRFMPRP was run?
A: -0.117

Q: Which “shrunken log2 fold change” value does the source give for RRIRSRPPRLPRPRPRPWWWPRP here?
A: 0.0716

Q: With RRIRDRPPRLPRPRPRPSRFPRP as the sequence, how does the “shrunken log2 fold change” value read?
A: 0.128

Q: For RRIRVRPPRLPRPRPRPAWWPRP, which “shrunken log2 fold change” value is on record?
A: 0.156

Q: RRIRSRPPRLPRPRPRPRLYPRP was tested. Which “shrunken log2 fold change” value did it give?
A: 0.114

Q: Which “shrunken log2 fold change” value does the source give for RRIRKRPPRLPRPRPRPHCEPRP here?
A: 0.177

Q: RRIRLRPPRLPRPRPRPNAHPRP was tested. Which “shrunken log2 fold change” value did it give?
A: -0.154

Q: With RRIRDRPPRLPRPRPRPIIQPRP as the sequence, how does the “shrunken log2 fold change” value read?
A: -0.0678

Q: For RRIRKRPPRLPRPRPRPDRLPRP, which “shrunken log2 fold change” value is on record?
A: -0.038

Q: Which “shrunken log2 fold change” value does the source give for RRIRQRPPRLPRPRPRPKLFPRP here?
A: -0.0707

Q: How did the “shrunken log2 fold change” value turn out when RRIRCRPPRLPRPRPRPKLLPRP was run?
A: -0.172

Q: How did the “shrunken log2 fold change” value turn out when RRIRYRPPRLPRPRPRPWSAPRP was run?
A: -0.237

Q: For RRIRCRPPRLPRPRPRPVDWPRP, which “shrunken log2 fold change” value is on record?
A: 1.33

Q: Which “shrunken log2 fold change” value does the source give for RRIRRRPPRLPRPRPRPTEFPRP here?
A: -0.191

Q: For RRIRRRPPRLPRPRPRPHWYPRP, which “shrunken log2 fold change” value is on record?
A: -0.404

Q: How did the “shrunken log2 fold change” value turn out when RRIRKRPPRLPRPRPRPSEEPRP was run?
A: 0.1

Q: Which “shrunken log2 fold change” value does the source give for RRIRWRPPRLPRPRPRPIHLPRP here?
A: -0.0188

Q: RRIRIRPPRLPRPRPRPFGHPRP was tested. Which “shrunken log2 fold change” value did it give?
A: -0.272

Q: With RRIRRRPPRLPRPRPRPTTMPRP as the sequence, how does the “shrunken log2 fold change” value read?
A: 0.32

Q: For RRIRCRPPRLPRPRPRPHGLPRP, which “shrunken log2 fold change” value is on record?
A: -0.0989

Q: Which “shrunken log2 fold change” value does the source give for RRIRHRPPRLPRPRPRPSGVPRP here?
A: -0.115

Q: With RRIRVRPPRLPRPRPRPAFWPRP as the sequence, how does the “shrunken log2 fold change” value read?
A: 2.56

Q: Which “shrunken log2 fold change” value does the source give for RRIRHRPPRLPRPRPRPDKHPRP here?
A: -0.25

Q: With RRIRWRPPRLPRPRPRPKAPPRP as the sequence, how does the “shrunken log2 fold change” value read?
A: 0.378

Q: With RRIRCRPPRLPRPRPRPKIRPRP as the sequence, how does the “shrunken log2 fold change” value read?
A: 0.0994

Q: With RRIRHRPPRLPRPRPRPDKGPRP as the sequence, how does the “shrunken log2 fold change” value read?
A: 0.0349

Q: Which “shrunken log2 fold change” value does the source give for RRIRVRPPRLPRPRPRPHIGPRP here?
A: -0.0312

Q: With RRIRFRPPRLPRPRPRPHYAPRP as the sequence, how does the “shrunken log2 fold change” value read?
A: -0.285

Q: RRIRCRPPRLPRPRPRPQSGPRP was tested. Which “shrunken log2 fold change” value did it give?
A: -0.142

Q: Which “shrunken log2 fold change” value does the source give for RRIRARPPRLPRPRPRPGHLPRP here?
A: 0.337

Q: How did the “shrunken log2 fold change” value turn out when RRIRRRPPRLPRPRPRPLAAPRP was run?
A: 0.874

Q: How did the “shrunken log2 fold change” value turn out when RRIRTRPPRLPRPRPRPSKFPRP was run?
A: -0.624

Q: How did the “shrunken log2 fold change” value turn out when RRIRARPPRLPRPRPRPHSQPRP was run?
A: 0.0561

Q: Which “shrunken log2 fold change” value does the source give for RRIRRRPPRLPRPRPRPMQSPRP here?
A: 0.0774

Q: Which “shrunken log2 fold change” value does the source give for RRIRHRPPRLPRPRPRPAVCPRP here?
A: 0.0561

Q: How did the “shrunken log2 fold change” value turn out when RRIRFRPPRLPRPRPRPQNLPRP was run?
A: -0.218

Q: Which “shrunken log2 fold change” value does the source give for RRIRDRPPRLPRPRPRPPGYPRP here?
A: 0.0954

Q: How did the “shrunken log2 fold change” value turn out when RRIRMRPPRLPRPRPRPSVEPRP was run?
A: 0.227

Q: For RRIRHRPPRLPRPRPRPIWPPRP, which “shrunken log2 fold change” value is on record?
A: 0.0213

Q: For RRIRARPPRLPRPRPRPCWDPRP, which “shrunken log2 fold change” value is on record?
A: -0.102

Q: RRIRFRPPRLPRPRPRPEFMPRP was tested. Which “shrunken log2 fold change” value did it give?
A: -0.109

Q: Which “shrunken log2 fold change” value does the source give for RRIRPRPPRLPRPRPRPGLHPRP here?
A: 0.09

Q: RRIRKRPPRLPRPRPRPECGPRP was tested. Which “shrunken log2 fold change” value did it give?
A: 1.01

Q: Which “shrunken log2 fold change” value does the source give for RRIRRRPPRLPRPRPRPSLMPRP here?
A: -0.0626

Q: Which “shrunken log2 fold change” value does the source give for RRIRDRPPRLPRPRPRPCGVPRP here?
A: 0.0765

Q: For RRIRPRPPRLPRPRPRPPKHPRP, which “shrunken log2 fold change” value is on record?
A: 0.499

Q: Which “shrunken log2 fold change” value does the source give for RRIRCRPPRLPRPRPRPFVPPRP here?
A: -0.139

Q: With RRIRTRPPRLPRPRPRPSEWPRP as the sequence, how does the “shrunken log2 fold change” value read?
A: -0.0236

Q: Which “shrunken log2 fold change” value does the source give for RRIRLRPPRLPRPRPRPNFIPRP here?
A: -0.228

Q: With RRIRMRPPRLPRPRPRPRKRPRP as the sequence, how does the “shrunken log2 fold change” value read?
A: 3

Q: RRIRLRPPRLPRPRPRPFDEPRP was tested. Which “shrunken log2 fold change” value did it give?
A: 0.0466

Q: RRIRARPPRLPRPRPRPRWTPRP was tested. Which “shrunken log2 fold change” value did it give?
A: 0.145

Q: How did the “shrunken log2 fold change” value turn out when RRIRYRPPRLPRPRPRPENPPRP was run?
A: -0.382

Q: RRIRHRPPRLPRPRPRPIAIPRP was tested. Which “shrunken log2 fold change” value did it give?
A: 0.0123

Q: How did the “shrunken log2 fold change” value turn out when RRIRMRPPRLPRPRPRPVPMPRP was run?
A: 0.44

Q: For RRIRVRPPRLPRPRPRPKDRPRP, which “shrunken log2 fold change” value is on record?
A: -0.0469

Q: RRIRPRPPRLPRPRPRPVNMPRP was tested. Which “shrunken log2 fold change” value did it give?
A: 0.0158

Q: Which “shrunken log2 fold change” value does the source give for RRIRRRPPRLPRPRPRPDCGPRP here?
A: 0.16

Q: Which “shrunken log2 fold change” value does the source give for RRIRDRPPRLPRPRPRPFRYPRP here?
A: 0.0402

Q: How did the “shrunken log2 fold change” value turn out when RRIRGRPPRLPRPRPRPWAVPRP was run?
A: -0.142

Q: With RRIRERPPRLPRPRPRPNHVPRP as the sequence, how does the “shrunken log2 fold change” value read?
A: -0.25

Q: How did the “shrunken log2 fold change” value turn out when RRIRNRPPRLPRPRPRPHTGPRP was run?
A: -0.313

Q: For RRIRIRPPRLPRPRPRPNRMPRP, which “shrunken log2 fold change” value is on record?
A: -0.0394

Q: Which “shrunken log2 fold change” value does the source give for RRIRIRPPRLPRPRPRPQVEPRP here?
A: -0.127

Q: RRIRRRPPRLPRPRPRPKCRPRP was tested. Which “shrunken log2 fold change” value did it give?
A: 0.453
